Assay results: paper PMC6996315

Target: human α3β2 nicotinic acetylcholine receptor (human) (UniProt P32297)
UniProt P32297, sequence (P32297 32-505, chain 1 of 2): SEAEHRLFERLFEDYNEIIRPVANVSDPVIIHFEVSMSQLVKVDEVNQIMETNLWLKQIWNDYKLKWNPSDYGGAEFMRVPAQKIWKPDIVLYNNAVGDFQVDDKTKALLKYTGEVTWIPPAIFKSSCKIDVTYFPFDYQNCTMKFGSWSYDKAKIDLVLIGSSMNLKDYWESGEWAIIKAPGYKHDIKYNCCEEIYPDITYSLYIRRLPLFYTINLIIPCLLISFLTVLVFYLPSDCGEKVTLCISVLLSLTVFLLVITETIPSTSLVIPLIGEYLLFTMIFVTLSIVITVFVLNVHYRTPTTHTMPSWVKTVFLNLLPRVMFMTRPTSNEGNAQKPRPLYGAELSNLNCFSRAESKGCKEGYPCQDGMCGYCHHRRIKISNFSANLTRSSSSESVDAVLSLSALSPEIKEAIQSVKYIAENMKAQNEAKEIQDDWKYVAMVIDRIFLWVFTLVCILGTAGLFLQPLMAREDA
UniProt P32297, sequence (P17787 26-502, chain 2 of 2, further chain): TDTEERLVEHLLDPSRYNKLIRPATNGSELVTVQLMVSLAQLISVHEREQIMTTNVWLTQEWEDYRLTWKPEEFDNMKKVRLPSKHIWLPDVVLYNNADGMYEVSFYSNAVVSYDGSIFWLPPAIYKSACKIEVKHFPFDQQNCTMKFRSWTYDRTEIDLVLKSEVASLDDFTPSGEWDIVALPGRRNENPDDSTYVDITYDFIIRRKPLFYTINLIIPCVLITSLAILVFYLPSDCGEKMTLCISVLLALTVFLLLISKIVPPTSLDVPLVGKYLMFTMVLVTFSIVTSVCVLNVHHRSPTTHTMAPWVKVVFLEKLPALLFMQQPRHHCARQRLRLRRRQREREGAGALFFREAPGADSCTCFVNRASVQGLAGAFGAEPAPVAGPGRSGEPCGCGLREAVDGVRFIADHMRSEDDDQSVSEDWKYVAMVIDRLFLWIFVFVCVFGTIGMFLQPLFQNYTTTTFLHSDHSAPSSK

## drysdalin (natural protein)
  inhibition of ACh‐evoked peak current at 30 nmol/L drysdalin, Xenopus oocytes: 13%
